Experiment: soluble on expression in E. coli; label from the status in PepcDB or PDB records

Sequence | soluble on expression in E. coli
MHHHHHHSENTFIFPATFMWGTSTSSYQIEGGTDEGGRTPSIWDTFCQIPGKVIGGDCGDVACDHFHHFKEDVQLMKQLGFLHYRFSVAWPRIMPAAGIINEEGLLFYEHLLDEIELAGLIPMLTLYHWDLPQWIEDEGGWTQRETIQHFKTYASVIMDRFGERINWWNTINEPYCASILGYGTGEHAPGHENWREAFTAAHHILMCHGIASNLHKEKGLTGKIGITLNMEHVDAASERPEDVAAAIRRDGFINRWFAEPLFNGKYPEDMVEWYGTYLNGLDFVQPGDMELIQQPGDFLGINYYTRSIIRSTNDASLLQVEQVHMEEPVTDMGWEIHPESFYKLLTRIEKDFSKGLPILITENGAAMRDELVNGQIEDTGRQRYIEEHLKACHRFIEEGGQLKGYFVWSFLDNFEWAWGYSKRFGIVHINYETQERTPKQSALWFKQMMAKNGF | soluble
MSSDTGSEYLDEEIRGDELGPSIDDNALAAAASAARLPFDRPTDHELAFFPELWEHKTAVEVFLLLRNSTLATWQYNPLKECTALDVRNNVFPPFNSDLDLIQNIVHYLSRHGLINFGRYVRSTKISRFLVRDRRSVIVIGAGAAGISAATQLESFGFDVIVLEARNCIGGRIHSFKSKSGEIMETGGDTLRKIEDSPMATLLHQVNFEEHGVFDFTSVFVEGRPLNEEKIHLFLDHYKSAHGALNYQAHQCEHRDDQGSFISRQQAYENLLSMCERGTLIKYYNFCKSLETVARAREHHFNQMKQLRMTALMAENQLKKMEEEGNLEQDPVLRRSLKRDIATSLEKFEEVADAFETADNHWQRLNEHPQAKQYMHPGSEFATFNFMLGFEEYLVGAQLEKVQFSCDSMQNKENGVAARLTEGIAELLTQLSEKRKLDIRLKHRVLDIDYSGFEHVLLKVQRENGDIEEMKAAFVVSTLPIGVLKKTIIADERAPTFTPSLPDKKVEAIRNIGCGSVNKCILEFDRVFWTANGGRNQFVTVSPNIKTRGSMNIWSSVPGSKVLCTYIVGEEAMLELPDDVIIQNAMINLQKAFGNNCPRAPISAHITRWHDDELAFGSGAFMSLRTETTSFDDVMEPLKTSDGMSRVYFAGEHTCSSYTSTIQGAWMSGARAAADISNDHIGIGFVDISGTRGQRGDEEEELLIEVDIDGKIPEKDENEAVADIPNAPNAPNAQKPEEIPKIAEEIELVAEAEKAEKAEVQLEPLVPTVE | not soluble
MSLNVIDTLPAFRDYCSELASSHGSLAADAERASGFRYGHEDWLVQFKRDGAGIGLLDPQALAAAGADWNDFNRAVGDAVWILHDSLQDLPGFDELGMEPQRLFDTEIAARLLGLKRFGLAAVTEHFLGLTLAKEHSAADWSYRPLPRDWRNYAALDVELLIELETKMRAELKRQGKMEWAQEEFDYALKEGLGPRKEHLIPWMHVSHITEVMRDRQALAIVRALWTRRDELAREYDIAPTLLLSDSSIIEVAKRKPHNAAQFRSIRSINERVRIHTDSEQDKMFERYAPIQRKIKPSMWKNIIQDALALPPSEWPDVDGGAARRHESQSASAPKSIRVWKERYPERLQVLNRVRKAVSQIAEDTRTPVEIVIKPQYLRNLCWTDEPRKRDVARFLSEQGARDWQVSLVAESVSRAIEGHHHHHH | not soluble
MVKRRNLLHFNNGARSERDLGDLVTKVFEKAAKKEPQPLYTFSLPLLSVQDEIRVYCKKKNIKIGYDTLFMEITFSADREAVDELIKHFFTENKLYLRGRFYLSAAVV | not soluble
MSLAISQEQKQAIDQALTERLLHHPFYQEAKVIATYLSFSHEFQTRELIEQALKDGKKVLIPKTYPKGRMEFVAYDPQQLVKTSFALLEPQGDVEVVDASQIDLIHVPGLAFTTKGYRIGYGGGYYDRYLEHFSGRTLSTIYPCQIQDFIPENHDIPVQEVLIDEGNLEGHHHHHH | soluble
MQVTYKGRPIRITPDFSPETMKARRAWTDVIQTLREHKCQPRLLYPAKLSITIDGETKVFHDKTKFTQYLSTNPALQRIITEKKQYKD | soluble
MNSENSFSSSEHITVLLHEAVNGLALKENGIYIDGTFGRGGHSRFILSQLSSNGRLIAVDRDPRAIAEAHKIQDLRFQIEHNSFSHIPEICDKLNLVGKIDGILLDLGVSSPQLDEAERGFSFMKDGPLDMRMDTTQGLSAEEWLKQVSIEDLTWVLKTFGEERFAKRIATAIVDFNKSAVKNGTEFLSRTSQLAELISQAVPFKDKHKHPATRSFQAIRIFINSELDELESLLNSALDMLAPEGRLSIISFHSLEDRMVKHFMKKQSKGEDIPKGLPLREDQIQRNQKLRIIGKAIQPSDAEIQANPRSRSAILRVAERI | not soluble
MKIGIIGAMQQEVAILKDLIEDVQEVNQAGCTFYSGQIQGVDVVLLQSGIGKVSAALGTALLISQYAPDVVINTGSAGGFDASLNVGDVVISSEVRHHDADVTAFGYEIGQMAGQPAAFKADEKLMTVAEQALAQLPNTHAVRGLICTGDAFVCTAERQQFIRQHFPSVVAVEMEASAIAQTCHQFKVPFVVVRAISDVADKESPLSFEEFLPLAAKSSSAMVLKMVELLK | soluble
MSLDQPLTFYGLKSMSGAFASYGKYADMGSRLAIAEHPQLLGHPLKYKVIDTEGNAGKAVRKVQEAIGQDGARFFQGCTLSSSALAVSKEIHKAGGVFMTPVGADEITGKDCNASTFRWSVPTYGAIRETLVPMSRQLPQAKRWYTITPQYVFGDALLDNARKVFAELGVEHIGNSYHSLQEQEFSGYLTNAIAAKPDVLVLLNFGSQASNALRQAVNFGIKDRMKVLMVWSAGLDQFQELGSDVLEGVYLGAQYWHQVDTPLNKLLVAATRKAYGINPNYPLAADYIGTKVMLEAIVKAGSLDGAAVSAALQGMRFQGPTGEELIRPGDHQVLKDYYLLRGKPQGQMRDEGHHHHHH | not soluble
MDIKINDITLGNNSPFVLFGGICVLESLDSTLQTCAHYVEVTRKLGIPYIFKASFDKANRSSIHSYRGVGLEEGLKIFEKVKAEFGIPVITDVHEPHQCQPVAEVCDVIQLPAFLARQTDLVVAMAKTGNVVNIKKPQFLSPSQMKNIVEKFHEAGNGKLILCERGSSFGYDNLVVDMLGFGVMKQTCGNLPVIFDVTHSLQTRDAGSAASGGRRAQALDLALAGMATRLAGLFLESHPDPKLAKCEGASALPLHLLEDFLIRIKALDDLIKSQPILTIE | soluble
MGSDKIHHHHHHMTNNRLERFAHNLDWNLLRTFVVVVEEGSITAAANRLLLQQPAVSMALKRLEQTIGQKLIDRRPGRFDLTEAGEKLHLQCRDIFAAVIRLPHVLETAGEEITGHLNIHAVSHAHNPAWDRKLGSFFRMHPKVTISMTVATTVDVLSAVERNIATMGLCDGIIPEGLNKSFHIRERYALYCGRGHRLFGVEGVVFHDLRGDPYIAFIADVLGGQHMNSVTAVRAVGSFGQQVRGVSCNVEEVMRLIAANVGIGMLPDHIASEAVAAGDLWQLPPYRDLPTTDVFRISNPNSILNPAEAAFLAHVADTQALDHCHHQQD | not soluble
MSSEWDNKIIPVIGVPLEARKLPSARIPKKPKETDGNSTETVVNSTEKPEERKEKPPKPPKQKQKQKQNLNNKFLKNLITDTGKPASMNGLFVAEEEAKLTLLEKKAMKIHIEENTLSDPQFPTYTTKHQGRIKFKCRLLWLLNKETFMKRANKPHLANIVVKQAHMEAVPPKQNVNQKKQMKNQEKNKNAKPLMDIKFDEKARSFKQRTGEDYNGGFDISSNYQGSEGSGGYQHIGNTWPNTESQWNYDPSTNGYSTFLASTPDTSTTYQPYQPSEYANFSRQLESSSSSVPVYGGATDPTQTSTSSVISFGVAVHEPISESSASAYDDPTRNHWNPQSATSDYSTVPTSGTSNVFPSYQTSEYSSFPNQTPSSSSSYQQSSQYTPMVPDLINQAINGYTTPQYNQPNQQVNQDFNTNQFSASLASLHSQPLEASEDELLRQKRLMEIEQELHMINAKKMHMQMEAEIRHREMELAKRQQLMELRERELRDRECFENGRTHAGHTGQHNYDNREYSSHHESKNPSVGGNYSSTSRSISINEDPAASHYYGQRVERKKRLGGELARRQGRVYEEVSSPGPLKRSADQSRAGSIQPAEGPSRKQRRRNNKNVQVTVNMEDISDDEEV | not soluble
MIRVIFLDLDKTLLPEYDPEPAIPIVEELKKKGFEIVFNSSKTRAEQEYYREKLNVKGPFIVENGSAIYIPSNYFPFEVPGVKRGEYMVLELGVKVEEIRKALKELEAEYGLKYYGNSTDEEIEKFTKLPKHLIPLAKDREYSETIFLWKREGWEKDLIRKGFKVTMGSRFYAVHGNSDKGKAAKLLLDLYKRVDEVESYAVGDGENDFPMFDVVDFAFLIGDLRHENAENVTSIKDVLKKIAAALEHHHHHH | soluble
MRTIYVIGIGTGSPEFLTLQAISGLRHAQAIVALDKGEQKSDLLALRQKIVDTHAPGTPIYAVTDPERDRNPDNYEEEVRRWHAERAHLLASTIRERTPDDGAVAFLVWGDPSLYDSTLRIIEHMRNLEDLHADVKVIPGITAVQVLTAEHGILINRIGEAIHITTGRNLPETSAKDRRNCVVMLDGKTAWQDVATEHTYMWWGAFLGTEQQVLRKGYVHEIGAQVAELKQQLRTEHGWIMDTYLLRELD | soluble
MNSLLFVYGTLRKHEKNHHLLAQSACINEQARTKGSLFAAKEGPTVVFNDEDEGYIYGEVYEADELCIHKLDQFFQGYHKQTVFVETDVGIKIALIYFMNKDGCAGFTKISSGDWKEHQMISKSKNPIYYFAYGSCMDNARFQKAGVDHYFQDPVGRAVLKGYTTRFTLKREDGSRADMLEDGGTTEGVLYRIPYSALSYLYKREGVESLTYRPAFVDVEAGGRHYKDCLTFLVLQKEAEIAPPQHYQIEIERGAELYLSPEFTEKLKRHMNSLPKGLEHHHHHH | soluble
SAGRGKLIAVIGDEDTVTGFLLGGIGELNKNRHPNFLVVEKDTTINEIEDTFRQFLNRDDIGIILINQYIAEMVRHALDAHQRSIPAVLEIPSKEHPYDAAKDSILRRAKGMFTAEDLR | soluble
MATEVTFFDELKIDNKVDIIGNNVRGELPNIWLQYGQFKLKASGGDGTYSWYSENTSIATVDASGKVTLNGKGSVVIKATSGDKQTVSYTIKAPSYMIKVDKQAYYADAMSICKNLLPSTQTVLSDIYDSWGAANKYSHYSSMNSITAWIKQTSSEQRSGVSSTYNLITQNPLPGVNVNTPNVYAVCVE | soluble
MSLENVDPFDIIRQFRSVIAKTSLQASSNIEGLDTVWNSDLVLEANFWHLVEILLSFRTSQEFLDKESSISSKPYNSSIIFEKELLQKDKNLYQIWLIIVWIEGNFPFVEKPSNIPSSKWTNTLVTSGLMSSDLDYPLRDCSVVINDKDKADDHVFYKYVYELLLCGNYDQIFEECKLSDNITLNMIMCGMQEYVDPSIDVQLKDEFEVQQGVKKHSLWRRAVYSLSQNDKLDKYERAIYSYLAGDIPNDEVLQTLNWDSELLVYLNQILKIEVENYLLQNGKVNNDELILSLPSNTMDLQSILNLLSAKHPEESEHPIRVLIGSVMLNTIPSVLHSSVSMLMNVVTGIENDNDIFGEPYLLRVVTHMTIFLEILNPGTISESDKTKLITAYISILKSQELYDLIPIYISFLSHNEAIEASSFILSNLEGKDIRKKQLEICNFLKLPVEDMLKRTTQCVFAETEGHHHHHH | not soluble
MPLDPICKKIISRDTEYFSDYGGKNYYFCSSECKHKFDALEKSVIRLKRNLSEKEKISFGKLKRDIIKPGICTLCGACAASCEYITIKDEKPELIGPCKACGVCYYQCPRTITTEEGLIGSFRYAYAAQSAIPEIKGQDGGVVTSLLLYALDEGLIDCAVVTVHSEEEPWKPVPIVAKTREEILKSSGSIYSHSMTLEALMSAVKQGMNSVAFVGTSCNIDAVTKMQKSSYGFLHLFMRAKVLKLGLFCMDTFAYEGIKAVLESYGITLDNVDAMKIRKGKFEVALKDGKEHIFELSEFDEYRSSSCRFCTDLTAENSDISFGGVGSPRGYTTVLARSAIGYEIFNEAIDNGYIEARQLTDDELEKVLNLAKMKKVQMYDLHRRQKTLEHHHHHH | not soluble
